According to PMC11891782:
pKd: −log10 of the molar value.

Columns and labels:
Experiment in all cases: ELISA; dose-response: 1 μg component adsorbed; rLIC_13355 serially diluted 1:1 from 1 μg, 1 h at 37 °C; anti-His mAb detection; KD by non-linear regression, one site specific binding
[1] = biological target: Laminin-1 from the basement membrane of Engelbreth-Holm-Swarm mouse sarcoma (mouse) (UniProt P19137)
[2] = biological target: Native plasminogen, purified
Plasma fibronectin = biological target: Plasma fibronectin

| Substance | pKd [1] | pKd [2] | pKd (Plasma fibronectin) |
| --- | --- | --- | --- |
| rLIC_13355, recombinant putative lipoprotein encoded by the gene LIC_13355 of Leptospira interrogans (natural protein) | 7.73 | 7.93 | – |
| rLIC_13355, recombinant putative lipoprotein encoded by the gene LIC_13355 of Leptospira interrogans (natural protein; other documents disagree on this pair) | – | – | 5.46 |
